Results from patent publication US20070031956.

Tested on: S6 peptide (RRRLSSLRA)

Chain of Full-length human Pim-1 kinase (residues M1-K313) with N-terminal HexaHis tag and thrombin cleavage site (chain, as listed by the source): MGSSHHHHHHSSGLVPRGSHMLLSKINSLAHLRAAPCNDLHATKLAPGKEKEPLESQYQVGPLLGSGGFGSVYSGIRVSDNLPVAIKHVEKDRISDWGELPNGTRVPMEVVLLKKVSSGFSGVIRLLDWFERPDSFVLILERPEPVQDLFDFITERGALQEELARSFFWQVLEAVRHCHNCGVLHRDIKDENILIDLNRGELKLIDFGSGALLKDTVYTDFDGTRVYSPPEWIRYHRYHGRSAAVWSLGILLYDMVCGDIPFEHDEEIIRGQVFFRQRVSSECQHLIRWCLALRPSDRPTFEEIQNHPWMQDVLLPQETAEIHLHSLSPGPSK

## Full-length human Pim-1 kinase (residues M1-K313) with N-terminal HexaHis tag and thrombin cleavage site
  peptide Km (coupled-enzyme kinase assay): peptide Km=51±2 µM
